Experimental data as given in article PMC3295573 (2012).

Target: T1, LidA(FL), untagged (Legionella pneumophila strain Corby)
T1 chain: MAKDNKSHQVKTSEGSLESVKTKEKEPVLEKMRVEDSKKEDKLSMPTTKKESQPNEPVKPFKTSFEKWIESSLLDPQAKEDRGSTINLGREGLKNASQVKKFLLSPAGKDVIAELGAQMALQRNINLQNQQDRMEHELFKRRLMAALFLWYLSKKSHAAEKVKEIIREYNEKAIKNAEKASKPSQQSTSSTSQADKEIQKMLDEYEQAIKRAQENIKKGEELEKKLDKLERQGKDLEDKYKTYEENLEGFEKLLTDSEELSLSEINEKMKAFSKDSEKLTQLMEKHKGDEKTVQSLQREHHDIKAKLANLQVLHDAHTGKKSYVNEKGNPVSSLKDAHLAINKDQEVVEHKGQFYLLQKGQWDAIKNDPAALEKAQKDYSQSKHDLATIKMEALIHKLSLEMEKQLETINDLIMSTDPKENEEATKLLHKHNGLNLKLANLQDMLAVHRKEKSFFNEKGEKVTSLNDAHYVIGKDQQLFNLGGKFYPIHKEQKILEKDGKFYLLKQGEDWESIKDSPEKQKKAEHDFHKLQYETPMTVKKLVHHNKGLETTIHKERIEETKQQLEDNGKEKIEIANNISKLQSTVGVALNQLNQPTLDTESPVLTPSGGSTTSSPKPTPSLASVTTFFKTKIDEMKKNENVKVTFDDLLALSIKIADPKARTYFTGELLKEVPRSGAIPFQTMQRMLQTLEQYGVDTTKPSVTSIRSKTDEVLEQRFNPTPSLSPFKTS
Experiment: ITC

B1: Rab22 (FL) (natural protein)
chain: MALRELKVCLLGDTGVGKSSIVWRFVEDSFDPNINPTIGASFMTKTVQYQNELHKFLIWDTAGQERFRALAPMYYRGSAAAIIVYDITKEETFSTLKNWVKELRQHGPPNIVVAIAGNKCDLIDVREVMERDAKDYADSIHAIFVETSAKNAININELFIEISRRIPSTDANLPSGGKGFKLRRQPSEPKRSCC
B1 gave a Kd of 200 nM.
